Assay results as given in patent US9932404B2.

Target: full length human TLR3 (human)

- % inhibition of poly(I:C)-induced NF-κB luciferase reporter: 8%
Substance: TLR3.7 (eBiosciences, cat no 14-9039) (antibody)
